# Results as given in patent publication US5932432.
# Key:
# [1] = biological target: yeast RAS1 protein with the carboxy-terminal sequence CAIM (yeast) (UniProt P01119)
# [2] = biological target: yeast RAS1 protein with the carboxy-terminal sequence CAIL (yeast) (UniProt P01119)
substance,measurement,setting,value
farnesyl:protein transferase (FTase) present in a tobacco protein extract (enzyme),"lowest protein concentration detected by radiolabeling protein blots with [3H]FPP (in vitro farnesylation, fluorography)",[1],0.12 mmol m^-2
same,"lowest protein concentration detected by radiolabeling protein blots with [3H]FPP (in vitro farnesylation, fluorography)",[2],< 12
